Results as given in patent US6803203B1, “DNA-PK assay” (Brookhaven Science Associates, priority 1993, dated 2004).
No end group written: not given here.

Tests used:
DNA-PK [1] = biological target: T1, DNA-PK (Homo sapiens, UniProt P78527); assay: Phosphorylation of synthetic peptides in crude cell extracts (HeLa, T98G); format: biochemical; conditions: for PO4 incorporated + DNA: + calf thymus DNA 10 μg/ml; for PO4 incorporated + DNA / PO4 incorporated − DNA: peptide 200 μM, 10 min 30° C.; for PO4 incorporated − DNA: without DNA
T1 construct: DNA-PK was purified from HeLa cells; endogenous in cells; host or cells: HeLa S3 cells; the endogenous enzyme was purified in house by chromatography
Protocol: To examine cells for DNA-PK content, extracts from HeLa, T98G human glioblastoma, and mouse L 929 cells were prepared by freeze-thaw lysis of cells harvested from five nearly confluent 9-cm-diameter plates as described in Example 1 and by Lees-Miller, et al. J. Biol. Chem., 264:2431-2437 (1989). T98G (ATCC CRL 1690) is a human glioblastoma cell line; L-929 (ATCC CCL 1) was derived from connective tissue of the NCTC 2071 mouse. Based on earlier work with natural protein substrates, it was expected that extracts of HeLa and T98G cells would contain a significant amount of DNA-PK activity while the extracts of mouse L 929 would contain little, if any, DNA-PK activity. Lysates in low-salt buffer were centrifuged at 10,000×g, to give a supernatant fraction (designated S10) and pellets (designated P10). The pellets were washed by resuspension in a high salt buffer (0.5 M KCl, 25 mM N-2-hydroxyethylpiperazine-N′-2-ethanesulfonic acid (HEPES; pH 7.5), 10 mM MgCl2, 1 mM dithiothreitol) and were sonicated. The sonicated suspension was centrifuged at 10,000×g for 10 min to give a second supernatant fraction (designated P10S), which was diluted with buffer lacking KCl to give a volume equal to that of the original supernatant (S10). Protein concentrations, determined using the Bio-Rad dye-binding assay, were as follows: HeLa S10, 3 mg/ml; HeLa P10S, 1 mg/ml; T98G S10, 3.5 mg/ml;,T98G P10S, 1 mg/ml; L-929 S10, 1 mg/ml; and L-929 P10S, 0.3 mg/ml. These extracts were assayed for the ability to phosphorylate (SEQ ID NOS: 11 and 20) with and without added calf thymus DNA.

DNA-PK [2] = biological target: T1, DNA-PK; assay: DNA-PK activity in extracts of human cell lines; format: biochemical; conditions: for Specific Activity + DNA: + calf thymus DNA 10 μg/ml; for Specific Activity + DNA / Specific Activity − DNA: peptide 0.2 mM; for Specific Activity − DNA: no added DNA
Protocol: (§1) Extracts of additional primate and rodent cells were tested for the presence of DNA-PK activity in accordance with the method of the present invention. The DNA-PK activity was determined using the methods described in Examples 1, 4 and 5 for seven human cell lines, two African green monkey kidney lines, and six rodent cell lines.
(§2) Extracts were prepared essentially as described in Example 10. Cells were lysed by freezing and thawing in hypotonic buffer; soluble (S10) “cytoplasmic” and insoluble in (P10) “nuclear” fractions were made by centrifuging lysates at 10,000×g for 10 min. The insoluble fraction was extracted with buffer containing 0.5 M KCl, which releases any DNA-PK that is bound to DNA. After centrifugation of the salt-washed pellet fraction, which removed the remaining insoluble material, the salt extract (P10S) was diluted and assayed as previously described.
(§3) Protein concentrations, determined using the Bio-Rad dye binding assay, were between 0.3 and 6 mg/ml. Extracts were incubated at 30° C. for 10 min with each peptide at 0.2 mM in the absence of added DNA (−DNA) or with 10 μg/ml calf thymus DNA (+DNA). After incubation the reaction mixtures were acidified with an equal volume of 30% acetic acid and spotted on to Whatman P-81 phosphocellulose paper (Whatman, Inc., Clifton, N.J.). The filters then were washed extensively in 15% acetic acid before the adsorbed radioactivity was quantitated as described in Example 5.
(§4) The amount of phosphate incorporated was calculated from the specific activity of the ATP. The rate of phosphate incorporation into the Ser-Gln-Glu peptide (Table 1) (SEQ ID NO: 11) in the presence of calf thymus DNA was approximately linear throughout the 10 minute reaction incubation period. Parallel assays were performed without added peptide, and these background values were subtracted to produce the activities that are shown in Table 3. Background values varied but, in all cases, were less than 0.2 nmol/min/mg (a few percent of the activity present in human cells). The specific activities were calculated from the total activity in the two fractions divided by the total protein in the two fractions. The percent of total DNA-PK activity in the S10 and P10S fractions was determined with peptide (SEQ ID NO: 11) in the presence of added calf thymus DNA. Extracts without substantial DNA-PK activity were examined for their ability to inhibit purified DNA-PK. Inhibitory activity was not detected.

DNA-PK [3] = assay: DNA-PK activity in extracts of monkey cell lines; format: biochemical, African green monkey; conditions: peptide 0.2 mM; for Specific Activity + DNA: + calf thymus DNA 10 μg/ml; for Specific Activity − DNA: no added DNA
Protocol: as §1, §2, §3, §4

DNA-PK [4] = assay: DNA-PK activity in extracts of mouse cell lines; format: biochemical; conditions: peptide 0.2 mM; for Specific Activity + DNA: + calf thymus DNA 10 μg/ml; for Specific Activity − DNA: no added DNA
Protocol: as §1, §2, §3, §4

DNA-PK [5] = assay: DNA-PK activity in extracts of rat cells; format: biochemical; conditions: Rat REF, peptide 0.2 mM; for Specific Activity + DNA: + calf thymus DNA 10 μg/ml; for Specific Activity − DNA: no added DNA
Protocol: as §1, §2, §3, §4

EPPLSEQAFADLWKK [SEQ ID NO: 20]
PO4 incorporated + DNA (DNA-PK [1]; HeLa, P10S): 0.0 nmol/min/ml of extract
PO4 incorporated − DNA (DNA-PK [1]; HeLa, P10S): 0.0 nmol/min/ml of extract
PO4 incorporated + DNA (DNA-PK [1]; HeLa, S10): 0.3 nmol/min/ml of extract
PO4 incorporated − DNA (DNA-PK [1]; HeLa, S10): 0.0 nmol/min/ml of extract
PO4 incorporated + DNA (DNA-PK [1]; T98G, P10S): 0.0 nmol/min/ml of extract
PO4 incorporated − DNA (DNA-PK [1]; T98G, P10S): 0.0 nmol/min/ml of extract
PO4 incorporated + DNA (DNA-PK [1]; T98G, S10): 0.04 nmol/min/ml of extract
PO4 incorporated − DNA (DNA-PK [1]; T98G, S10): 0.02 nmol/min/ml of extract
phosphorylation by crude cell extracts (in words) (DNA-PK [1]; all extracts of Table 2 (HeLa, T98G, L 929)): poorly phosphorylated, if at all
Specific Activity + DNA (DNA-PK [2]; Human 293-S, P10S): 0.04 nmol PO4/min/mg protein
Specific Activity − DNA (DNA-PK [2]; Human 293-S, P10S): 0.0 nmol PO4/min/mg protein
Specific Activity + DNA (DNA-PK [2]; Human 293-S, S10): 0.01 nmol PO4/min/mg protein
Specific Activity − DNA (DNA-PK [2]; Human 293-S, S10): 0.0 nmol PO4/min/mg protein
Specific Activity + DNA (DNA-PK [2]; Human A549, P10S): 0.01 nmol PO4/min/mg protein
Specific Activity − DNA (DNA-PK [2]; Human A549, P10S): 0.06 nmol PO4/min/mg protein
Specific Activity + DNA (DNA-PK [2]; Human A549, S10): 0.0 nmol PO4/min/mg protein
Specific Activity − DNA (DNA-PK [2]; Human A549, S10): 0.02 nmol PO4/min/mg protein
Specific Activity + DNA (DNA-PK [2]; Human HPB-ALL, P10S): 0.05 nmol PO4/min/mg protein
Specific Activity − DNA (DNA-PK [2]; Human HPB-ALL, P10S): 0.04 nmol PO4/min/mg protein
Specific Activity + DNA (DNA-PK [2]; Human HPB-ALL, S10): 0.0 nmol PO4/min/mg protein
Specific Activity − DNA (DNA-PK [2]; Human HPB-ALL, S10): 0.04 nmol PO4/min/mg protein
Specific Activity + DNA (DNA-PK [2]; Human HeLa-JW, P10S): 0.1 nmol PO4/min/mg protein
Specific Activity − DNA (DNA-PK [2]; Human HeLa-JW, P10S): 0.0 nmol PO4/min/mg protein
Specific Activity + DNA (DNA-PK [2]; Human HeLa-JW, S10): 0.1 nmol PO4/min/mg protein
Specific Activity − DNA (DNA-PK [2]; Human HeLa-JW, S10): 0.0 nmol PO4/min/mg protein
Specific Activity + DNA (DNA-PK [2]; Human MRC 5, P10S): 0.04 nmol PO4/min/mg protein
Specific Activity − DNA (DNA-PK [2]; Human MRC 5, P10S): 0.02 nmol PO4/min/mg protein
Specific Activity + DNA (DNA-PK [2]; Human MRC 5, S10): 0.30 nmol PO4/min/mg protein
Specific Activity − DNA (DNA-PK [2]; Human MRC 5, S10): 0.11 nmol PO4/min/mg protein
Specific Activity + DNA (DNA-PK [2]; Human Raji, P10S): 0.0 nmol PO4/min/mg protein
Specific Activity − DNA (DNA-PK [2]; Human Raji, P10S): 0.0 nmol PO4/min/mg protein
Specific Activity + DNA (DNA-PK [2]; Human Raji, S10): 0.0 nmol PO4/min/mg protein
Specific Activity − DNA (DNA-PK [2]; Human Raji, S10): 0.08 nmol PO4/min/mg protein
Specific Activity + DNA (DNA-PK [2]; Human T98G, P10S): 0.0 nmol PO4/min/mg protein
Specific Activity − DNA (DNA-PK [2]; Human T98G, P10S): 0.0 nmol PO4/min/mg protein
Specific Activity + DNA (DNA-PK [2]; Human T98G, S10): 0.01 nmol PO4/min/mg protein
Specific Activity − DNA (DNA-PK [2]; Human T98G, S10): 0.01 nmol PO4/min/mg protein
phosphorylation of the peptide by cell extracts (in words) (DNA-PK [2]; all extracts of Example 11, with or without added DNA): None of the extracts phosphorylated the Ser-Glu-Gln peptide (SEQ ID NO: 20) at a significant rate
Specific Activity + DNA (DNA-PK [3]; Monkey COS-1, P10S): 0.24 nmol PO4/min/mg protein
Specific Activity − DNA (DNA-PK [3]; Monkey COS-1, P10S): 0.0 nmol PO4/min/mg protein
Specific Activity + DNA (DNA-PK [3]; Monkey COS-1, S10): 0.02 nmol PO4/min/mg protein
Specific Activity − DNA (DNA-PK [3]; Monkey COS-1, S10): 0.0 nmol PO4/min/mg protein
Specific Activity + DNA (DNA-PK [3]; Monkey CV-1, P10S): 0.08 nmol PO4/min/mg protein
Specific Activity − DNA (DNA-PK [3]; Monkey CV-1, P10S): 0.08 nmol PO4/min/mg protein
Specific Activity + DNA (DNA-PK [3]; Monkey CV-1, S10): 0.05 nmol PO4/min/mg protein
Specific Activity − DNA (DNA-PK [3]; Monkey CV-1, S10): 0.0 nmol PO4/min/mg protein
Specific Activity + DNA (DNA-PK [4]; Mouse L-929, P10S): 0.0 nmol PO4/min/mg protein
Specific Activity − DNA (DNA-PK [4]; Mouse L-929, P10S): 0.0 nmol PO4/min/mg protein
Specific Activity + DNA (DNA-PK [4]; Mouse L-929, S10): 0.0 nmol PO4/min/mg protein
Specific Activity − DNA (DNA-PK [4]; Mouse L-929, S10): 0.0 nmol PO4/min/mg protein
Specific Activity + DNA (DNA-PK [4]; Mouse SV-Balb/c, P10S): 0.04 nmol PO4/min/mg protein
Specific Activity − DNA (DNA-PK [4]; Mouse SV-Balb/c, P10S): 0.0 nmol PO4/min/mg protein
Specific Activity + DNA (DNA-PK [4]; Mouse SV-Balb/c, S10): 0.06 nmol PO4/min/mg protein
Specific Activity − DNA (DNA-PK [4]; Mouse SV-Balb/c, S10): 0.0 nmol PO4/min/mg protein
Specific Activity + DNA (DNA-PK [5]; P10S): 0.0 nmol PO4/min/mg protein
Specific Activity − DNA (DNA-PK [5]; P10S): 0.03 nmol PO4/min/mg protein
Specific Activity + DNA (DNA-PK [5]; S10): 0.0 nmol PO4/min/mg protein
Specific Activity − DNA (DNA-PK [5]; S10): 0.02 nmol PO4/min/mg protein
